The text below walks through data of the domain aggregation screens of Martell et al. (2025).

The data set can be described thus: soluble fraction after stress (log2 fold change); higher = more stays soluble; pooled small domains, quantitative proteomics. The conditions noted are these: stress: pH 4. Summed up:
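Pooled custom libraries of small protein domains were stressed at pH 4 and then measured by high-throughput quantitative proteomics. The fold change in the amount of each domain that stays soluble after the acid stress serves as a measure of aggregation propensity. Fold changes are given on a log2 scale, and higher values mean more of the domain stayed soluble.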

Bounds are passed on as bounds.

Regarding “HMLPKILVMDGKVNKNALTTLGKDEEWVKKVLRNHNIHSIKDVLLALYDTKGKFQYQLYDDYEK”, the “soluble fraction (log2)” value was -0.019.

With “HMLPKNITNTIDHWIQKFPQGKQRSAIIAALHAVQHHNKGFLTNDLLNQVADYIDVPKMNVYEVATFYSM”, the “soluble fraction (log2)” value turned out to be 0.22. The value for “HMLPLIEVPAVTGKYLTKAKSALKDAGLDTGDIKRVEHEEHGENYVLKQDPPAGTKVPFGTTVSLTVVAP” was 0.15; that for “HMLPLLEYLDPFTGKKTYTYLNPDTQHPIFTYYSYQDDKTGRTAYSYIDPLTGKAVNSDEPPMDILYD” was -1.34; that for “HMLPPHMEVRAIMILDKRPMALMNIEGEGDGLIVSPGYRFGDGRGRVVSITQTKVVVLWAGTSMEL” was -0.383. The same measure for “HMLPQYELIKQYLRHQIETGEWPIGYRTPSEPKLAEQFSVSRMTARRALQELADQGLLSRTAGSGTFVAKP”: 0.0856; for “HMLPVQGEEVAPGLYKFDFPFLADKRVWEKTINAFKAEHPELKVNYIYTGPDELNSKKKTHVLVYVFTES”: -0.122.

Take “HMLPVYSITEAAERLDIPASTIKWYADRFASYISPSKGKGRKRFTPEDLATLQKIHELSQDHTTEEAEAML”: the “soluble fraction (log2)” value was -1.16. For the sequence “HMLPYKGTVAVSLAVLHKAVGVGTADMLKAVGTLRQGTEVTVTGRNGPFAQLKNGLWMKESFLE”, the “soluble fraction (log2)” value was 0.193. The same measure for “HMLQADALADPVGWALRTLGFDLEAGTPERSAIQRSFRQSLIEAHPDHGGADDEAAQRIADITEARRILLA”: -0.858; for “HMLQFTYPRLHTKKSWYVDFMSFDPGAGKMRRKKFMLDGIPKITDRRKRAAELIEVLTKQLRAGWSPWVNV”: 0.403. The same measure for “HMLQIADEYLDRLQALFEDVRDNHFAIGDLLVELVDMHDSRRVDVINYIAGRLAISPTTLYDYENTARR”: -0.966.

With “HMLQLDATDRALIVATQGGLPLVPRPYQVVGEQLGISGEEVVARLRALLDAGVIRRIGAVPN”, the “soluble fraction (log2)” value was 0.327. The same measure for “HMLQLKEPLKKVYERLTPVPKTAETILAELWEKGEYLDIAALHRALMELELSGYVRQSSPGYFGTSA”: 0.00945; for “HMLQQKESAALGERLLNQALATLKVEPDAISWDRWEALAKEYGAKSQLDILADIGLGKRLSFVVAQALTKV”: -0.698. The value for “HMLRDMIIQSYRYYTDKERNPRQVWNRMEADAFWEIIRDYEGYNGDGYVHTKIIPEMEALTVIEMDN” was -1.62; that for “HMLRISLAAARVNAEMTQEDVAREMHVSKNTVVNWEKGKSEPTISQSRELSKLYNMPLEYIFYL” was 0.258. Consider “HMLRKTTDLDAIRSVAKDVIDQNPKAVEDYVGGKESAIGFLLGQVMRATKGTADANTVRELLKEILDS”, for which the “soluble fraction (log2)” value was -0.234. The same measure for “HMLRPMVAILNKNISKGQVISEDYIKFEVRPERQIHGAYHDISEVLGRKTKNNIAAGTILKVRHLDT”: 0.375; for “HMLRQVSDSNALETAVKKVLDANPEEVERYKSGNKKLISFFVGQTMKATKGAGNPKEINSILAKLL”: 0.201; for “HMLSAEAAAARTAISTLSEDQQRVLGLSIQRGLVHEQIARATGLPLGTVKTHIRRGLIKVREALEAQAAG”: 0.0049.

As to “HMLSAGETYTLGYLKASDGILFTAADGSEQTVMQRVQVRLYDNGDGTYTARLADDIAYSAVVTEDMIDK”, the “soluble fraction (log2)” value was 0.256. In the case of “HMLSDAAAMESIAYEAIRQMEPDTYYIIGAGTTTRGIMEVLGLKNTLIGVDLIRNKELVANDLGGKELLSY”, the “soluble fraction (log2)” value is -0.796. “HMLSDEDMMELAIIENLQRENLNPIEEARAYESLIDKGFTHTEIADKMGKSRPYISNSIRLLSL”: the “soluble fraction (log2)” value is -1.38. As for “HMLSDFHLNHDSIVNHTVQKKETIFSLSKKYGLSINEIIKANPGIQIDKLKRRSILIIPLRKK”, the “soluble fraction (log2)” value is -0.12. As to “HMLSDLTPGDLVVHATHGIGRFLGIRKLELEGMTKDYITIQYRGNENLYVPVTQMDLVSRYI”, the “soluble fraction (log2)” value is -0.975. The value for “HMLSGGEVKRIEIATILARKSGLMIFDEPEAGIDLWSFARLVETFEDIRSNTSGSLVIISHQ” was -0.0926; that for “HMLSKEERRSQLLDLGVRLLSTRSLDELSIDLLAEEAGISRGLLYHYFGNKHDFHEAVVRRAADDLI” was -1.12.

As to “HMLSLKAQVYEIIRQKILQQEYALGEKINIDTVADELKISNSPIREALMMLSQDGLIEMVPNNGARVI”, the “soluble fraction (log2)” value is -1.27. The same measure for “HMLSLSDIINDVMERLTREKNLTFDELLGEKRERRRIVYTFLALLELIRLKMIKAYQTAAFGVIRIFPR”: -1.15; for “HMLSLTSRQQEIFDLIKGHIKKTGMPPTRSEIALHFGFRSANSAEEHLRALARKGFIELIPGTSRGIKLIE”: at least 0.43.

On to “HMLSPPWYEYHRKVQAMFGRDPEVHIKDLDDLGDGKFSYMILVYNKEKAEAIKAILPQKVEMGNVTIETAI”, for which the “soluble fraction (log2)” value is at least 0.43.

As for “HMLSRNEWLVMEALWERPSTLMELVRQLGQEPPGWAKSTTATMVRRMEEKGLIRHEAGSKARVYHP”, the “soluble fraction (log2)” value is -0.325. The same measure for “HMLSSAAAIDRILAGGTAAMNHRQFDAALTSFNTVIEMRPDFAEGWNKRATLYYLIGEYERSIADVERTLA”: 0.0555; for “HMLSTRERMSSLMAQLQVQQFMPFHRLFTISEGRMGVIVTFLAMMELVKENLIKLIQAQEYGPIHVSLG”: 0.22; for “HMLSVRERMSAILVSLEGERYADFTGLFDPTEGKGGVTVTFLAILELLKESMIDVVQNELYGPIHVRAA”: 0.122. Consider “HMLSVRNRMSDVLKSLDDGEFHRFESLFNLEEGRLGVVVTFLAMLELAKEMLVEIVQNESLGPIYLKSR”, for which the “soluble fraction (log2)” value was found to be 0.144. The value for “HMLSVRQRMGELLERLADGQFHRFESLFTVEEGKLGVVVTFLGLLTLAKEQLLDIVQEGPTAPIYVKSLA” was 0.0784. The same measure for “HMLSVTLTVLPQQAGERLDAFAAAESTLSRSAAAKLIEDGQITVNGARAAKNYRLRAGDVIEIDEPEPI”: 0.194. Take “HMLTAPMPGTIQQILVTKGQKVRSGQTLMILEAMKMEHKIKAPNSGEIISINYSLGNRVEMGANLIEI”: the “soluble fraction (log2)” value is 0.0752. As for “HMLTDAAAVKRSVRNLVQYGFYEKPFHPEIGSGVRDLLFENMTPFVANNLSKQIEEIITNYEPRA”, the “soluble fraction (log2)” value was -0.126. The value for “HMLTDMSKIRKVLKLYGKGNSKLFISTYLSLSRNTVKKYISLFEVSGKTIEEILAKSDSELELLFSG” was -0.0775. The same measure for “HMLTEREQDTLNFIRQYIDEQGRSPLVSEIAKGLGIKSQGTTHRYIQALVDAGLLERHVGRTRGLHLT”: -0.352; for “HMLTGADAEKATAAAQAEFPGGTVLRVETDADGTYEAHVRKADGTEVEVKMDKDFKVTSVEE”: -0.0221. Regarding “HMLTLAVPNSINMRLDKYLSENIDYLSRSKIQGLINDGKVTINGENEKSSYKLNGDESIVIYYEE”, the “soluble fraction (log2)” value was -0.775. The value for “HMLTPQEIGSRLKLVRQGLQLKQQEVAEIIGTSQLKISKIEQGATVTTPDFLKLLAFYSQSVSLDILF” was -0.652; that for “HMLTRQRKQLLEYLSKHTDEQMTARQIADALTAESISISAVYRNLSALEEEGILKRSIRENTREVYYQYIA” was -0.231; that for “HMLTSIDQMLKLAMPDSDITVSKMNGLILLTGTVKAPEDAAEAERLVQAFSAPPPGQPPVTVVSRLRTA” was 0.22.

Turning to “HMLTTMSSQWKPSLDAIEILEKSGIAYSFIEDAIPEFVLYWRERGISHGAWNTKFVEHIRKQWAKFEAS”, the “soluble fraction (log2)” value worked out at 0.21. The same measure for “HMLTTVAAQRAALHQEEDITKLREIILKLVPFWGLDGGAYADKETSIQLERQYRESFDQAVSAARRSGQA”: -0.234.
